B1: wt-peptide PTTIYY (non-biotinylated hexapeptide) / His-AGR2 WT (mature AGR2, amino acids 21-175, N-terminal 6xHis tag; plasmid pmAGR2) [human] (parent complex)
chain 1: PTTIYY
chain 2: RDTTVKPGAKKDTKDSRPKLPQTLSRGWGDQLIWTQTYEEALYKSKTSSKPLMIIHHLDECPHSQALKKVFAENKEIQKLAEQFVLLNLVYETTDKHLSPDGQYVPRIMFVDPSLTVRADITGRYSNRLYAYEPADTALLLDNMKKALKLLKTEL
B2: His-AGR2 WT (mature AGR2, amino acids 21-175, N-terminal 6xHis tag; plasmid pmAGR2) [human] / His-EpEX-CO, extracellular domain of EpCAM (amino acids 24-265), N-terminal 6xHis tag [human] (parent complex)
chain 1: B1 chain 2
chain 2: QEECVCENYKLAVNCFVNNNRQCQCTSVGAQNTVICSKLAAKCLVMKAEMNGSKLGRRAKPEGALQNNDGLYDPDCDESGLFKAKQCNGTSMCWCVNTAGVRRTDKDTEITCSERVRTYWIIIELKHKAREKPYDSKSLRTALQKEITTRYQLDPKFITSILYENNVITIDLVQNSSQKTQNDVDIADVAYYFEKDVKGESLFHSKKMDLTVNGEQLDLDPGQTLIYYVDEKAPEFSMQGLK

Variants of: B1
Test: competition ELISA (AGR2 binding to immobilised biotinylated peptide A4 with free competitor peptide); 1 μg AGR2; 100 ng competitor peptide; RLU is AGR2 bound to peptide A4, so lower RLU = stronger competitor binding; DMSO (no competitor) est. 79; read off a plot
In the case of chain 1 T2S, the response is reported as ~83 RLU.
chain 1 T2C gave a response of ~80 RLU.
For chain 1 T2A, the response was ~84 RLU.
Variant chain 1 I4V has a response of ~55 RLU.
Variant chain 1 I4M has a response of ~80 RLU.
chain 1 I4L was tested, and the response was ~44 RLU.
For chain 1 I4A, the response was ~83 RLU.
Work on chain 1 T3V yielded a response of ~35 RLU.
With chain 1 T3A the response was ~6 RLU.
Variant chain 1 T3S has a response of ~7 RLU.
Work on chain 1 T3L yielded a response of ~66 RLU.
chain 1 T3M was tested, and the response was ~8 RLU.
chain 1 T3I was tested, and the response was ~75 RLU.
chain 1 T3G was tested, and the response was ~12 RLU.
In the case of chain 1 Y5A, the response is reported as ~84 RLU.
chain 1 Y5F showed a response of ~40 RLU.
chain 1 Y5W gave a response of ~20 RLU.
chain 1 Y6F showed a response of ~25 RLU.
chain 1 Y6A was tested, and the response was ~60 RLU.
chain 1 P1W showed a response of ~9 RLU.
In the case of chain 1 P1G, the response is reported as ~7.5 RLU.
Variant chain 1 P1L has a response of ~15 RLU.
For chain 1 P1A, the response was ~6 RLU.
chain 1 P1F showed a response of ~6 RLU.
Variant chain 1 P1M has a response of ~17 RLU.
With chain 1 P1V the response was ~11 RLU.
chain 1 P1I was tested, and the response was ~7.5 RLU.

Variants of: B2
Test: ELISA (His-EpCAM solid phase; His-AGR2 mobile phase); point at 0.5 μg AGR2 (highest dose of the titration); no DTT; read off a plot
Variant chain 1 D112A has a response of ~140 RLU.
In the case of chain 1 S114A, the response is reported as ~160 RLU.
In the case of chain 1 P113A, the response is reported as ~150 RLU.

Variants of: B2
Test: ELISA (His-EpCAM solid phase; His-AGR2 mobile phase); point at 0.5 μg AGR2 (highest dose of the titration); 1 mm DTT at the AGR2-binding stage; read off a plot
Work on chain 1 D112A yielded a response of ~110 RLU.
In the case of chain 1 S114A, the response is reported as ~160 RLU.
chain 1 P113A gave a response of ~35 RLU.
